Tests used:
human separase [1] = experiment: Rebinding of recombinant securin to mitotically activated separase immunoprecipitates; format: binding; conditions: separase activated in mitotic Xenopus extracts, mostly cleaved form
Protocol: (§1) 30 microliter beads were incubated with 40 μg bacterially expressed wildtype securin, destruction box deleted form of securin (Gmachl et al., 2000) or BSA diluted in XB+1 mM DTT for 40 min at RT. Subsequently the beads were washed with XB+1 mM DTT and with TBS+0.5 M NaCl+1 mM DTT+0.5% TWEEN20, followed by one wash with XB+1 mM DTT. To control the rebinding of securin an aliquot of 5 μl was taken per assay and subsequently analysed by immunoblotting with antibodies against separase and securin.
FIG. 1A: Separase immunoprecipitates (separase IP) obtained from Nocodazole arrested HeLa cells and bound by antibodies against the C-terminus of separase coupled to beads were activated in mitotic Xenopus egg extracts (separase IP^mitotic). Mitotically activated separase immunoprecipitates were either incubated in buffer, wildtype securin, destruction box deleted securin or in BSA. Aliquots were taken and analysed by immunoblotting with antibodies against separase and securin.
Target sequence in this assay (Q14674 1-1486 limits assumed): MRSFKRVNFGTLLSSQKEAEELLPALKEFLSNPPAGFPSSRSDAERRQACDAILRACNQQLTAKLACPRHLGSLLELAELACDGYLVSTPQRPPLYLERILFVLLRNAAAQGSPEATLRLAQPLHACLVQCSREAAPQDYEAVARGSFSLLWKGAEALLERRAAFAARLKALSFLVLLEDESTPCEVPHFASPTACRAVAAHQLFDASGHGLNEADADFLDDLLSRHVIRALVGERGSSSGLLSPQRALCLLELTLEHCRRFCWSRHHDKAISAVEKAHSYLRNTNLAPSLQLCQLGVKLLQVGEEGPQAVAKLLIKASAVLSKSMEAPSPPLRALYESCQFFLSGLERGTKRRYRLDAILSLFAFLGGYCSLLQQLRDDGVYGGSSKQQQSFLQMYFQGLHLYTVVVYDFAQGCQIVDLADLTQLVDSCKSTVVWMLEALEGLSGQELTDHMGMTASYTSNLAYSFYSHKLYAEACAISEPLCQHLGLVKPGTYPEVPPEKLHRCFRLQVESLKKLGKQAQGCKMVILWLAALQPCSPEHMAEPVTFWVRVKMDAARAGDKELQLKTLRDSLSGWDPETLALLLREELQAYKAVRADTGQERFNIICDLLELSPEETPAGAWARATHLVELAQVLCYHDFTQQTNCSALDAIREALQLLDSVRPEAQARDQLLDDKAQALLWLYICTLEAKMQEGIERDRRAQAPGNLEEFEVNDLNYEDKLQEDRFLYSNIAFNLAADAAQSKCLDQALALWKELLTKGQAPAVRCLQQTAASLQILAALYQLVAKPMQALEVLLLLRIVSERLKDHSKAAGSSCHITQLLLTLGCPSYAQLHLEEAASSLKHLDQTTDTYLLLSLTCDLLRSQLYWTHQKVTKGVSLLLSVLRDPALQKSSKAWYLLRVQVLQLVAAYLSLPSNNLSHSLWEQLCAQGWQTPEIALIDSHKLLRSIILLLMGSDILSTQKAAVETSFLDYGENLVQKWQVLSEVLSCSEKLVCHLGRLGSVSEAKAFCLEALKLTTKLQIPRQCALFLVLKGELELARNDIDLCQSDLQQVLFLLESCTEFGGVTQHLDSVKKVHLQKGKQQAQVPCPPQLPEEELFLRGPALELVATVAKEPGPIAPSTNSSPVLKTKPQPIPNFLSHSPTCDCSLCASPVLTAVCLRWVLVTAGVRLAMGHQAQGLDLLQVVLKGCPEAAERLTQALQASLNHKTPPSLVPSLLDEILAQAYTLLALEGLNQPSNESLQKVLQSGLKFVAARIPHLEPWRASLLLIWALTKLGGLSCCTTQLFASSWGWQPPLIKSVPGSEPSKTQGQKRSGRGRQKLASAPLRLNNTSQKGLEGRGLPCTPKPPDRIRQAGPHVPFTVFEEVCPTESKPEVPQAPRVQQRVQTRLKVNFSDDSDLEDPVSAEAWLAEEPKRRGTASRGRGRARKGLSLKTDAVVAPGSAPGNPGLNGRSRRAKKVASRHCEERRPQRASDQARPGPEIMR
Target sequence in this assay (Q14674 1536-2120 limits assumed): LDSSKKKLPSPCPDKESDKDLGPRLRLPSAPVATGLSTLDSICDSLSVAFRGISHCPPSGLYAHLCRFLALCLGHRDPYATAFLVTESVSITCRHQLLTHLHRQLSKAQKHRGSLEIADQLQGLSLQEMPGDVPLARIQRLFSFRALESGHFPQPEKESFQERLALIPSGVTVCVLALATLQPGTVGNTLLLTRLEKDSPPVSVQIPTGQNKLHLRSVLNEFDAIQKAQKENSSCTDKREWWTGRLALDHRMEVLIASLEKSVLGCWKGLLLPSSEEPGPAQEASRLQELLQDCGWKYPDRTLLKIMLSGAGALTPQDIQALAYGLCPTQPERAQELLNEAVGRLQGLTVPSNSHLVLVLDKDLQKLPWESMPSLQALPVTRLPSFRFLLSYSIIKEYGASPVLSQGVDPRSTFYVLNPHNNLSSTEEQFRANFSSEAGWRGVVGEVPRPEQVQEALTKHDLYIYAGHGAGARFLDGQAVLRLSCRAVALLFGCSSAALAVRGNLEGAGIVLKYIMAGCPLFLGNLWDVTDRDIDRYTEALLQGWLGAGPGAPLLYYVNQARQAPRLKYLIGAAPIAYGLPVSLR

human separase [2] = experiment: Covalent labelling of separase forms by biotin peptide (avidin blot); format: binding; conditions: recombinant securin bound to cleaved active separase, then human peptide inhibitor (FIG. 4D)
Protocol: (§2) B. Separase immunoprecipitates were incubated with 100 μM Biotin-SVEQGR-amk or with DMSO prior mitotic activation. Incubation for 10 minutes, 22° C. and 1000 rpm. After washing twice in XB+1 mM DTT the activation was performed in mitotic Xenopus egg extracts.
Interphase Xenopus egg extracts were driven into mitosis in the presence of 1 mM Biotin-SVEQGR-amk or DMSO. Those mitotic Xenopus egg extracts were used to activate a batch of separase immunoprecipitates.
Biotin labeled peptides were detected via immunoblotting according to Faleiro et al., 1997.
C. […] After 10 min incubation at 22° C. and 1250 rpm beads were again washed and analyzed by immunoblotting.
FIG. 4B: Separase IPs (see A) were either preincubated with Biotin-SVEQGR-amk (preinc. with inh. peptide) or with DMSO (preinc. with DMSO), subsequently washed and aliquots were taken. […] All samples were analysed by immunoblotting with avidin.
FIG. 4D: Activated separase immunoprecipitates bound by antibodies against the C-terminus of separase to beads were first incubated with recombinant securin or, for control, with recombinant truncated cyclinB. […] Thereafter, the immunoprecipitates were again washed and analyzed by immunoblotting.
Target sequence in this assay (Q14674 1536-2120 limits assumed): as above

human separase [3] = experiment: SCC1 in vitro cleavage assay; format: biochemical; conditions: substance added to mitotically activated separase immunoprecipitates before SCC1-myc reaction mix
Protocol: as §1
Target sequence in this assay (Q14674 1536-2120 limits assumed): as above
The beads were used for the SCC1 in vitro cleavage assay: 20 μl beads were mixed with 30 μl of the following SCC1 in vitro translation mix (SCC1 myc IVT+1 μl PLK-GST+0.3 μl […], 0.3 μl 100 mM ATP, 0.12 μl 250 mM EGTA, 13.78 μl XB+1 mM DTT) and incubated at 22° C. and 1200 rpm. 5 μl were taken per time point, the reaction was stopped by addition of SDS loading buffer. Samples were analyzed by immunoblotting with mouse monoclonal antibodies against myc (9E10).
as §2
Interphase Xenopus egg extracts were driven into mitosis in the presence of 1 mM Biotin-SVEQGR-amk or DMSO. […]

B1: WT-securin: human securin expressed in E. coli and purified, the wildtype protein (protein)
chain: MATLIYVDKENGEPGTRVVAKDGLKLGSGPSIKALDGRSQVSTPRFGKTFDAPPALPKATRKALGTVNRATEKSVKTKGPLKQKQPSFSAKKMTEKTVKAKSSVPASDDAYPEIEKFFPFNPLDFESFDLPEEHQIAHLPLSGVPLMILDEERELEKLFQLGPPSPVKMPSPPWESNLLQSPSSILSTLDVELPPVCCDIDI
binding of securin to separase (human separase [1]): able to bind to separase | binding of peptide inhibitors to the active site of separase (human separase [2]): prevented the binding of peptide inhibitors to the active site of separase | SCC1 cleavage by separase (human separase [3]): no cleavage of SCC1 was detected

Reference: patent US20020164620A1, “Method for identifying compounds modulating sister chromatid separation” (Boehringer Ingelheim International GmbH, priority 2001, published 2002)
